# According to patent US20260242436A1 (HANMI PHARM, published 2026):
# T1: interleukin-2 alpha receptor (SYMANSIS, #4102H) to which a human immunoglobulin Fc region was linked (UniProt P01589 22-213, limits assumed)
# T1 construct: Bought receptor-Fc, captured on anti-human immunoglobulin antibody; also called IL-2Rα; CD25; not shown: human immunoglobulin Fc region
# T1 sequence (looked up): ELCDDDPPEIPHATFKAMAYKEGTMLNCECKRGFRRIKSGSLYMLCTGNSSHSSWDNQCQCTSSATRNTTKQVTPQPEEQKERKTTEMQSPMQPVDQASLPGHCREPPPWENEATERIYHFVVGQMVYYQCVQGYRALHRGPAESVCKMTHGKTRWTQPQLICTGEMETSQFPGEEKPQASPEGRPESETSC
# T2: interleukin-2 beta receptor (SYMANSIS, #4122H) to which a human immunoglobulin Fc region was linked (UniProt P14784 27-239, limits assumed)
# T2 construct: Bought receptor-Fc, captured on anti-human immunoglobulin antibody; also called IL-2Rβ; CD122; not shown: human immunoglobulin Fc region
# T2 sequence (looked up): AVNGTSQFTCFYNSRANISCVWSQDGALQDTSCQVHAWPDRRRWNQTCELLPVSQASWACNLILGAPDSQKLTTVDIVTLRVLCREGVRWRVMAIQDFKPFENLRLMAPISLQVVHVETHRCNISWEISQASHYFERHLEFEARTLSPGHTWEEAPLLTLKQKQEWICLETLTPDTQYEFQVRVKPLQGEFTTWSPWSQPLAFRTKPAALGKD
# Target: T1, interleukin-2 alpha receptor (SYMANSIS, …)
# Assay: SPR (Biacore T200); receptor-Fc captured on anti-human Ig CM5 chip, analog flowed; relative to analog 1 = 100%
# Method: (§1) In order to measure the binding affinities of the interleukin-2 analogs obtained in Example 4 for each of interleukin-2 alpha and beta receptors, surface plasmon resonance (SPR, BIACORE T200, GE Healthcare) was used. The binding affinities of the prepared analogs for the alpha and beta receptors were measured, and the binding affinity of each of the prepared analogs was compared with that of interleukin-2 analog 1 (aldesleukin).
# (§2) First, an anti-human immunoglobulin antibody (Abcam, #ab97221) was immobilized to a CM5 chip (GE healthcare) to about 5,000 resonance unit (RU) through amine coupling, and then the interleukin-2 alpha receptor ([…], #4102H) or interleukin-2 beta receptor ([…], #4122H), to each of which a human immunoglobulin Fc region was linked, was bound to the immunoglobulin antibody using an antigen-antibody binding reaction and thus finally immobilized. Thereafter, the recombinant interleukin-2 analog prepared above was diluted with HBS-P+ buffer (Cytiva, BR100671) to various concentrations by serial dilution, and the diluted samples were allowed to flow through CM5 chips, to which the interleukin-2 receptors were finally immobilized, to measure the binding affinity of each interleukin-2 receptor. […] Upon the completion of the measurement, the binding affinity of the receptor was evaluated according to the 1:1 binding fitting model in the Biaevaluation program.
row,Relative binding affinity (%),Binder
1,5%,interleukin-2 analog 31 (ligand) PTSSSTKKTQLQLEHLLLDLQMILNGINNYKNPKLTAMLTFKFYMPKKATELKHLQCLEEELKPLEEVLNLAQSKNFHLRPRELISNINVIVLELKGSETTFMCEYADETATIVEFLNRWITFSQSIISTLT
2,1.1%,interleukin-2 analog 13 (ligand) PTSSSTKKTQLQLEHLLLDLQMILNGINNYKNPKLTAMLTAKFYMPKKATELKHLQCLEEELKPLEEVLNLAQSKNFHLRPRDLISNINVIVLELKGSETTFMCEYADETATIVEFLNRWITFSQSIISTLT
3,9.4%,interleukin-2 analog 34 (ligand) PTSSSTKKTQLQLEHLLLDLQMILNGINNYKNPKLTAMLTFKFYMPKKATELKHLQCLEEELKPLEEVLNLAQSKNFHFRPRELISNINVIVLELKGSETTFMCEYADETATIVEFLNRWITFSQSIISTLT
4,0.2%,interleukin-2 analog 16 (ligand) PTSSSTKKTQLQLEHLLLDLQMILNGINNYKNPKLTAMLTKKFYMPKKATELKHLQCLEEELKPLEEVLNLAQSKNFHLRPRDLISQINVIVLELKGSETTFMCEYADETATIVEFLNRWITFSQSIISTLT

# Target: T2, interleukin-2 beta receptor (SYMANSIS, …)
# Assay: as above
# Method: as §1, §2
row,Binder,Relative binding affinity (%)
1,interleukin-2 analog 71 (ligand) PTSSSTKKTQLQLEHLLLDLQMILNGINNYKNPKLTAMLTKKFYMPKKATELKHLQCLEEELKPLEEVLNLAQSKNFHFEPRDVVSNINVFVLELKGSETTFMCEYADETATIVEFLNRWITFSQSIISTLT,17100%
2,interleukin-2 analog 61 (ligand) PTSSSTKKTQLQLEHLLLDLQMILNGINNYKNPKLTAMLTKKFYMPKKATELKHLQCLEEELKPLEEVLNLAQSKNFHYDPRDGVSNINVYVLELKGSETTFMCEYADETATIVEFLNRWITFSQSIISTLT,1040%
3,interleukin-2 analog 31 (ligand) PTSSSTKKTQLQLEHLLLDLQMILNGINNYKNPKLTAMLTFKFYMPKKATELKHLQCLEEELKPLEEVLNLAQSKNFHLRPRELISNINVIVLELKGSETTFMCEYADETATIVEFLNRWITFSQSIISTLT,236%
4,interleukin-2 analog 13 (ligand) PTSSSTKKTQLQLEHLLLDLQMILNGINNYKNPKLTAMLTAKFYMPKKATELKHLQCLEEELKPLEEVLNLAQSKNFHLRPRDLISNINVIVLELKGSETTFMCEYADETATIVEFLNRWITFSQSIISTLT,149%
5,interleukin-2 analog 34 (ligand) PTSSSTKKTQLQLEHLLLDLQMILNGINNYKNPKLTAMLTFKFYMPKKATELKHLQCLEEELKPLEEVLNLAQSKNFHFRPRELISNINVIVLELKGSETTFMCEYADETATIVEFLNRWITFSQSIISTLT,322%
6,interleukin-2 analog 25 (ligand) PTSSSTKKTQLQLEHLLFDLQMILNGINNYKNPKLTAMLTKKFYMPKKATELKHLQCLEEELKPLEEVLNLAQSKNFHLRPRDLISNINVIVLELKGSETTFMCEYADETATIVEFLNRWITFSQSIISTLT,21.7%
7,interleukin-2 analog 18 (ligand) PTSSSTKKTQLQLEHLLLDLQMILNGINNYKNPKLTAMLTKKFYMPKKATELKHLQCLEQELKPLEEVLNLAQSKNFHLRPRDLISNINVIVLELKGSETTFMCEYADETATIVEFLNRWITFSQSIISTLT,35.3%
8,interleukin-2 analog 58 (ligand) PTSSSTKKTQLQLEHLLLDLQMILNGINNYKNPKLTAMLTKKFYMPKKATELKHLQCLEEELKPLEEVLNLAQSKNFHFDPRDAASNINVFVLELKGSETTFMCEYADETATIVEFLNRWITFSQSIISTLT,7770%
9,interleukin-2 analog 24 (ligand) PTSSSTKKTQLQLEHLLVDLQMILNGINNYKNPKLTAMLTKKFYMPKKATELKHLQCLEEELKPLEEVLNLAQSKNFHLRPRDLISNINVIVLELKGSETTFMCEYADETATIVEFLNRWITFSQSIISTLT,37.9%
10,interleukin-2 analog 59 (ligand) PTSSSTKKTQLQLEHLLLDLQMILNGINNYKNPKLTAMLTKKFYMPKKATELKHLQCLEEELKPLEEVLNLAQSKNFHFDPRDAASNINVYVLELKGSETTFMCEYADETATIVEFLNRWITFSQSIISTLT,1530%
11,interleukin-2 analog 55 (ligand) PTSSSTKKTQLQLEHLLLDLQMILNGINNYKNPKLTAMLTKKFYMPKKATELKHLQCLEEELKPLEEVLNLAHSKNFHFDPRDLISNINVFVLELKGSETTFMCEYADETATIVEFLNRWITFSQSIISTLT,3030%
12,interleukin-2 analog 16 (ligand) PTSSSTKKTQLQLEHLLLDLQMILNGINNYKNPKLTAMLTKKFYMPKKATELKHLQCLEEELKPLEEVLNLAQSKNFHLRPRDLISQINVIVLELKGSETTFMCEYADETATIVEFLNRWITFSQSIISTLT,1260%
13,interleukin-2 analog 14 (ligand) PTSSSTKKTQLQLEHLLYDLQMILNGINNYKNPKLTAMLTKKFYMPKKATELKHLQCLEEELKPLEEVLNLAQSKNFHLRPRDLISNINVIVLELKGSETTFMCEYADETATIVEFLNRWITFSQSIISTLT,130%
14,interleukin-2 analog 57 (ligand) PTSSSTKKTQLQLEHLLLDLQMILNGINNYKNPKLTAMLTKKFAMPKKATELKHLQCLEEELKPLEEVLNLAHSKNFHFDPRDLISNINVFVLELKGSETTFMCEYADETATIVEFLNRWITFSQSIISTLT,2570%

# The remaining lines, values ahead:
row,Relative binding affinity (%),Binder
1,9570%,interleukin-2 analog 75 (ligand) PTSSSTKKTQLQLEHLLLDLQMILNGINNYKNPKLTAMLTKKFAMPKKATELKHLQCLEEELKPLEEVLNLAQSKNFHFEPRDVVSNINVFVLELKGSETTFMCEYADETATIVEFLNRWITFSQSIISTLT
2,711%,interleukin-2 analog 84 (ligand) PTSSSTKKTQLQLEHLRLDLEMILNGINNYKNPKLTRMLTFKFYMPKKATELKHLQCLEEELKPLEEVLNLAQSKNFHVDPRDEVSNINVFVLELKGSETTFMCEYADETATIVEFLNRWITFSQSIISTLT
3,10200%,interleukin-2 analog 70 (ligand) PTSSSTKKTQLQLEHLLLDLQMILNGINNYKNPKLTAMLTKKFYMPKKATELKHLQCLEEELKPLEEVLNLAQSKNFHYDPRDVVSNINVFVLELKGSETTFMCEYADETATIVEFLNRWITFSQSIISTLT
4,1040%,interleukin-2 analog 76 (ligand) PTSSSTKKTQLQLEHLLLDLQMILNGINNYKNPKLTAMLTKQFYMPKKATELKHLQCLERELKPLEEVLNLAQSKNFHFDPRDVGSNINVFVLELKGSETTFMCEYADETATIVEFLNRWITFSQSIISTLT
5,8150%,interleukin-2 analog 74 (ligand) PTSSSTKKTQLQLEHLLLDLQMILNGINNYKNPKLTDMLTKKFYMPKKATELKHLQCLEEELKPLEEVLNLAQSKNFHYDPRDVVSNINVFVLELKGSETTFMCEYADETATIVEFLNRWITFSQSIISTLT
6,644%,interleukin-2 analog 77 (ligand) PTSSSTKKTQLQLEHLLLDLQMILNGINNYKNPKLTAMLTKEFYMPKKATELKHLQCLERELKPLEEVLNLAQSKNFHFDPRDWVSNINVFVLELKGSETTFMCEYADETATIVEFLNRWITFSQSIISTLT
7,1590%,interleukin-2 analog 73 (ligand) PTSSSTKKTQLQLEHLLLDLQMILNGINNYKNPKLTAMLTKKFYMPKKATELKHLQCLEEELKPLEEVLNLAQSKNFHFDPRDWVSNINVFVLELKGSETTFMCEYADETATIVEFLNRWITFSQSIISTLT
8,35.5%,interleukin-2 analog 94 (ligand) PTSSSTKKTQLQLEHLLLDLQMILNGINNYKNPKLTRMLTFKFYMPKKATELKHLQCLEEELKPLEEVLNLAQSKNFHFEPRDVVSNINVFVFEFKGSETTFMCEYADETATIVEFLNRWITFSQSIISTLT
